Data from PMC10492923 (MedComm, 2023).

Target: T1, extracellular protease domain of wild-type ACE2 (human, UniProt Q9BYF1 19-615)
T1 construct: also called WT ACE2ecd; ACE2ecd
Assay: SPR
Details: both partners purified

T1 sequence (Q9BYF1 19-615): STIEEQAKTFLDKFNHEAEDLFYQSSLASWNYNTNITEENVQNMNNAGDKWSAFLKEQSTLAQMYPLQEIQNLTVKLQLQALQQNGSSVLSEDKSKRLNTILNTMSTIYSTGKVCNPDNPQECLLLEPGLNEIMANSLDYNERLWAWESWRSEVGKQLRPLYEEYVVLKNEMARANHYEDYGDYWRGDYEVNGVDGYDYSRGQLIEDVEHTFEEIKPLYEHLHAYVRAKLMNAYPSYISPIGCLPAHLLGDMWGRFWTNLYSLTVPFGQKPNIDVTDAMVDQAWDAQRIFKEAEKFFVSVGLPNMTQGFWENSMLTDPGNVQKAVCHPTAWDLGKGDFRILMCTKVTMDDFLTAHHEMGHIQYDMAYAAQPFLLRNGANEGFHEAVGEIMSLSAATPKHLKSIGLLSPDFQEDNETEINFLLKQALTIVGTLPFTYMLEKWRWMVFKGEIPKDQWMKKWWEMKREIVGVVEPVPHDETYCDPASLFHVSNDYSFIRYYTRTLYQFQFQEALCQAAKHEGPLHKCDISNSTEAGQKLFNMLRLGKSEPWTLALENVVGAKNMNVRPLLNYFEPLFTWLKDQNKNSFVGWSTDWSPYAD

B1: RBD of HCoV-NL63 (domain or fragment)
chain: QHTDINFTATASFGGSCYVCKPHQVNISLNGNTSVCVRTSHFSIRYIYNRVKSGSPGDSSWHIYLKSGTCPFSFSKLNNFQKFKTICFSTVEVPGSCNFPLEATWHYTSYTIVGALYVTWSEGNSITGVPYPVSGI
Question: Does B1 bind?
Answer: Result: binds
